Measured values reported in US20250262210A1 (TRUSTEES OF COLUMBIA UNIVERSITY IN THE CITY OF NEW YORK, published 2025).

Assays:
Experiment in all cases: IP/MS, LZTR1 wild type-FLAG, U87
CDC42BPA = CDC42BPA (human, UniProt Q5VT25 1-1732, limits assumed)
Procedure, shortened: (§1)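 Extracted peptides in 3% acetonitrile/0.1% formic acid ran on a 50 cm C18 column into an Orbitrap Fusion, with MaxQuant identification and spectral counting.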

ASXL1 = ASXL1 (human, UniProt Q8IXJ9 1-1541, limits assumed)
Procedure, shortened: as §1

RALGAPB = target: T1, RALGAPB (human, UniProt Q86X10 1-1494, limits assumed)
T1 sequence (looked up): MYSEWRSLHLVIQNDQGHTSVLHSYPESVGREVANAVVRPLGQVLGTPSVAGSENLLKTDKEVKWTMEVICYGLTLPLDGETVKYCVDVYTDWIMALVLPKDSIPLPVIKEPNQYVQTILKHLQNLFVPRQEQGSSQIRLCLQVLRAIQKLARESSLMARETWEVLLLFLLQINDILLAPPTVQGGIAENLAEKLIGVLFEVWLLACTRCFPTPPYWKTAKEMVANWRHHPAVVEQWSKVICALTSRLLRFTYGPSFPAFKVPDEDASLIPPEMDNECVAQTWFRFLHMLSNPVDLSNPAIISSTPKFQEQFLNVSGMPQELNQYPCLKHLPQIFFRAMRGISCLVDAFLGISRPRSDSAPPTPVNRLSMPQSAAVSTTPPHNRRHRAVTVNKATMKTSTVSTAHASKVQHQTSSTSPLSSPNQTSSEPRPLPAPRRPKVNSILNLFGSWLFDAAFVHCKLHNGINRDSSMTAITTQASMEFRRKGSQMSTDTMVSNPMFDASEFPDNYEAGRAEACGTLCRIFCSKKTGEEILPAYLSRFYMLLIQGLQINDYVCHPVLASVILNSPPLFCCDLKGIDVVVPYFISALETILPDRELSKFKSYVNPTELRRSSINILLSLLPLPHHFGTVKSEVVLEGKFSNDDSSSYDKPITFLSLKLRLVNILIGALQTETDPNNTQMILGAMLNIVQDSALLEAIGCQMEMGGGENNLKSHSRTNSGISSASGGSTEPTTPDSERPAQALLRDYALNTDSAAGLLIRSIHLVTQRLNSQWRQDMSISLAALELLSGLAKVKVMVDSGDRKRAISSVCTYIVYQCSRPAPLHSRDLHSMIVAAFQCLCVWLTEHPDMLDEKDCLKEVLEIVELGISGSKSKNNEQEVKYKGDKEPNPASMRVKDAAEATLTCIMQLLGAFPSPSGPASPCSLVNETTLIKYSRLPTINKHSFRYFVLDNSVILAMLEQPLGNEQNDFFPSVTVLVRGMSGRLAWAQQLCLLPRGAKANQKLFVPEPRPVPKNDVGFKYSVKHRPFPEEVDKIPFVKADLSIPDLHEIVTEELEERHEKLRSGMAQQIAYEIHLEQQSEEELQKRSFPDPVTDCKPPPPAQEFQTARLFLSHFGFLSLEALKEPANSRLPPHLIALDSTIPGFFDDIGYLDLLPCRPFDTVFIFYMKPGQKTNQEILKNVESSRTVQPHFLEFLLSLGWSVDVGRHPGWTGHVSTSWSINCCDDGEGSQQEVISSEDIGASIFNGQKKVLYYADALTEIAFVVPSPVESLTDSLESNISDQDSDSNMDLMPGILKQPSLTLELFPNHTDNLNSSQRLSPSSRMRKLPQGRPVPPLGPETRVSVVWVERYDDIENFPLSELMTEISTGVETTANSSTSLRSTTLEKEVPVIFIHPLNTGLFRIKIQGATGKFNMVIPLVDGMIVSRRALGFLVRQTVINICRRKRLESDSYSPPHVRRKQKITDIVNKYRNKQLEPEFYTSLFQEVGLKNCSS
Procedure, shortened: as §1

Measured: binding result

CDC42BPA, sequence (Q5VT25 whole entry, the tested form may be a part): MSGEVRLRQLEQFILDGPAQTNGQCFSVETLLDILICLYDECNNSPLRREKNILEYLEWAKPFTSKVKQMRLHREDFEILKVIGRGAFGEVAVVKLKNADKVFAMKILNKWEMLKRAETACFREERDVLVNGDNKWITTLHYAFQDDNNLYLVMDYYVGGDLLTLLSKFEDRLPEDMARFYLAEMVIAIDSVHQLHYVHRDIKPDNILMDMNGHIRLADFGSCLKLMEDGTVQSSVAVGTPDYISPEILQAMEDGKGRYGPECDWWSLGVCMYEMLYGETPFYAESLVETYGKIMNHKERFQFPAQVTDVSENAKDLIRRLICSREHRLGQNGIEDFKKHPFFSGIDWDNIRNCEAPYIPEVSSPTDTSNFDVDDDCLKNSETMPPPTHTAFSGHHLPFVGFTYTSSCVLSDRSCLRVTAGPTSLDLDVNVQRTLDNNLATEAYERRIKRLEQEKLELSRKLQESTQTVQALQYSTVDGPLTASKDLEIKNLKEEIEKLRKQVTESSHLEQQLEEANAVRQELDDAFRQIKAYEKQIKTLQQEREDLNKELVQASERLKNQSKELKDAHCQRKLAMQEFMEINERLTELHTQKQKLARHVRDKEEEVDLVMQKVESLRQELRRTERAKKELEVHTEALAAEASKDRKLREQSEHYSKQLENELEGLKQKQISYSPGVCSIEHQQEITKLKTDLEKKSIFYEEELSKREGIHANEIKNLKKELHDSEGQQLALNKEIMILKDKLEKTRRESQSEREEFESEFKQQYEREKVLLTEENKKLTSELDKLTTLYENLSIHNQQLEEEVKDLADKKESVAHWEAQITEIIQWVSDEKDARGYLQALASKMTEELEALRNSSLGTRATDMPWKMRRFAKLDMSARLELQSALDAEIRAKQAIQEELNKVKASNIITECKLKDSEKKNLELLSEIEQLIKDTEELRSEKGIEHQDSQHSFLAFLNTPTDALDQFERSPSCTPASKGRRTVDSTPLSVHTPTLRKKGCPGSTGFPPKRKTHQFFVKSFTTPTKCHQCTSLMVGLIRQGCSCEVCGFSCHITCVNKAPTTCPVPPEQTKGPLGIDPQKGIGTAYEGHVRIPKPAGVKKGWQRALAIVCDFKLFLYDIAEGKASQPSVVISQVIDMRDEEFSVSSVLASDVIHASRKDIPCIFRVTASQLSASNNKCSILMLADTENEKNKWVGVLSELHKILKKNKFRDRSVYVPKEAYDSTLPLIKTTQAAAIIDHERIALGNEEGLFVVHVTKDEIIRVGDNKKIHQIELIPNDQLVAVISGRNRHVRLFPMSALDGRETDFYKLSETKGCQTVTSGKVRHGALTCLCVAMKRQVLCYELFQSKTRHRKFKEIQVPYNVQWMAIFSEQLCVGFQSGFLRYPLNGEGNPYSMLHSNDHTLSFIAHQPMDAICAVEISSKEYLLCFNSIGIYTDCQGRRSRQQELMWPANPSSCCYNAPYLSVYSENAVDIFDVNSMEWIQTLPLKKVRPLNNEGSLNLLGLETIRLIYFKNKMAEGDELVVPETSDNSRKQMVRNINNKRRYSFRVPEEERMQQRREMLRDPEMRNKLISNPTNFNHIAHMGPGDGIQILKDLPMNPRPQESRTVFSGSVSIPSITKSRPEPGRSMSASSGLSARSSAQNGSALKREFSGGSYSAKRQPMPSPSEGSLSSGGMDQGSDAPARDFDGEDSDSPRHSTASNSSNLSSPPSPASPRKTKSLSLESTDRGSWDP
ASXL1, sequence (Q8IXJ9 whole entry): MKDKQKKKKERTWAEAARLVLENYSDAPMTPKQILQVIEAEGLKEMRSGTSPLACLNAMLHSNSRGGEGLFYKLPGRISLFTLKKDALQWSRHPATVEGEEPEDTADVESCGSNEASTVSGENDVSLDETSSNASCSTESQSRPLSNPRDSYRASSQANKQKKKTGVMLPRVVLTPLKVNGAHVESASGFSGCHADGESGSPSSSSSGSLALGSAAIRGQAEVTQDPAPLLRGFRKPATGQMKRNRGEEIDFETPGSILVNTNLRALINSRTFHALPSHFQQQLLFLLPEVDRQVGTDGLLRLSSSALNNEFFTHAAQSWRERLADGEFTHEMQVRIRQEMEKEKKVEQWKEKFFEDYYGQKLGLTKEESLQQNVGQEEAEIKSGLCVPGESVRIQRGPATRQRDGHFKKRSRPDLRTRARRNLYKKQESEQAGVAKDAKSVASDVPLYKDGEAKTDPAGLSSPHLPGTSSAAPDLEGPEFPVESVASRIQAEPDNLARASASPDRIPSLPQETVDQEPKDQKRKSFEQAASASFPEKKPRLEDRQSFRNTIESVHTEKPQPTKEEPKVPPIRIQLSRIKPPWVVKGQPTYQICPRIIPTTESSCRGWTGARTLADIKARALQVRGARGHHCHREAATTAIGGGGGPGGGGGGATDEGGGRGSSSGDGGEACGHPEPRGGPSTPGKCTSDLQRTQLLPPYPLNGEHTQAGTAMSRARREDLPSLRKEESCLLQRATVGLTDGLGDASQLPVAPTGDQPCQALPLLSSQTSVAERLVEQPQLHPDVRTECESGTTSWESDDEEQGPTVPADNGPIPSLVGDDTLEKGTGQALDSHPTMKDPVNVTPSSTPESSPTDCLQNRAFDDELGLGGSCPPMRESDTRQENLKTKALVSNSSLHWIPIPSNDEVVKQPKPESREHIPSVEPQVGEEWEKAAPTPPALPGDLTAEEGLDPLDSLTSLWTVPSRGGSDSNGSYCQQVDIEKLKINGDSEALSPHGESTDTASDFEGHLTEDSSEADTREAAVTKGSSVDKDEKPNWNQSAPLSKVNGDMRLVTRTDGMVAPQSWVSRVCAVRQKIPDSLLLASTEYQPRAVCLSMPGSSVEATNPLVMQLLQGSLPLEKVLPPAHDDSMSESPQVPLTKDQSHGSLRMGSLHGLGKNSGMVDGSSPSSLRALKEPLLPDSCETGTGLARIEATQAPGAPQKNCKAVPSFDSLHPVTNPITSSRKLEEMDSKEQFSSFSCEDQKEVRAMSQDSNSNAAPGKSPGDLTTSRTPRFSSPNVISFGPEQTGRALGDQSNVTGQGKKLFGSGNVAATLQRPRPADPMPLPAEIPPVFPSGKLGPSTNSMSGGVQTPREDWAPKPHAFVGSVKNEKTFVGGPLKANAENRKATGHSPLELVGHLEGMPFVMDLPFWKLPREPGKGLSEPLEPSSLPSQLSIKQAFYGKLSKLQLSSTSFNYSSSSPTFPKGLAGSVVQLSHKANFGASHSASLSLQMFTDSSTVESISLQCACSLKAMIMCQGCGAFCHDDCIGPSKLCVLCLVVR

B1: LZTR1-FLAG (other, human, UniProt Q8N653 1-840, looked up)
chain: MAGPGSTGGQIGAAALAGGARSKVAPSVDFDHSCSDSVEYLTLNFGPFETVHRWRRLPPCDEFVGARRSKHTVVAYKDAIYVFGGDNGKTMLNDLLRFDVKDCSWCRAFTTGTPPAPRYHHSAVVYGSSMFVFGGYTGDIYSNSNLKNKNDLFEYKFATGQWTEWKIEGRLPVARSAHGATVYSDKLWIFAGYDGNARLNDMWTIGLQDRELTCWEEVAQSGEIPPSCCNFPVAVCRDKMFVFSGQSGAKITNNLFQFEFKDKTWTRIPTEHLLRGSPPPPQRRYGHTMVAFDRHLYVFGGAADNTLPNELHCYDVDFQTWEVVQPSSDSEVGGAEVPERACASEEVPTLTYEERVGFKKSRDVFGLDFGTTSAKQPTQPASELPSGRLFHAAAVISDAMYIFGGTVDNNIRSGEMYRFQFSCYPKCTLHEDYGRLWESRQFCDVEFVLGEKEECVQGHVAIVTARSRWLRRKITQARERLAQKLEQEAAPVPREAPGVAAGGARPPLLHVAIREAEARPFEVLMQFLYTDKIKYPRKGHVEDVLLIMDVYKLALSFQLCRLEQLCRQYIEASVDLQNVLVVCESAARLQLSQLKEHCLNFVVKESHFNQVIMMKEFERLSSPLIVEIVRRKQQPPPRTPLDQPVDIGTSLIQDMKAYLEGAGAEFCDITLLLDGHPRPAHKAILAARSSYFEAMFRSFMPEDGQVNISIGEMVPSRQAFESMLRYIYYGEVNMPPEDSLYLFAAPYYYGFYNNRLQAYCKQNLEMNVTVQNVLQILEAADKTQALDMKRHCLHIIVHQFTKVSKLPTLRSLSQQLLLDIIDSLASHISDKQCAELGADI
notes: Expressed in HEK 293T, HeLa or U87 cells; used as cell lysate; also called LZTR1 wild type-FLAG; LZTR1 WT; not shown: FLAG tag at the C-terminus
binds: all assays above
